This test addresses T1, Grb2 labeled with Alexa Fluor 647 (UniProt P62993 1-217, Alexa Fluor 647 C2 maleimide on a surface cysteine (at most one per molecule; about 17% labeling overall)).
T1 construct: The labeled cysteine is not identified; Only about 17% of the preparation carries the dye; also called Grb2-AlexaFluor647; source: E. coli BL21(DE3), purified (HisTrap, TEV cleavage, gel filtration), labeled by maleimide coupling; not shown: His6, N-terminal, cleaved
As to the kind of experiment: TIRF microscopy of recruitment to supported-lipid bilayers; N-terminally His-tagged Btk constructs tethered to bilayers with 4% DGS-NTA(Ni), 96% DOPC, washed after equilibration; Grb2-Alexa Fluor 647 added; fluorescence at the membrane over time. Conditions: both partners purified.

T1 sequence (P62993 whole entry): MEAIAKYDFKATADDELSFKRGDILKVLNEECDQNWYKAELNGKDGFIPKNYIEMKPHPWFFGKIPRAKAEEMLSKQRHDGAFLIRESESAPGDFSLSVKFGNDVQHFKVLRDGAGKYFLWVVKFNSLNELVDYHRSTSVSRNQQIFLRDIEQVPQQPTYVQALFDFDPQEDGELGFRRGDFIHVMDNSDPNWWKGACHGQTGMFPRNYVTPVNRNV

B1: His-tagged Btk proline-rich linker (domain or fragment, human, UniProt Q06187 171-214, looked up)
chain: RNGSLKPGSSHRKTKKPLPPTPEEDQILKKPLPPEPAAAPVSTS
notes: Btk, human, residues 171-214 (proline-rich linker between the PH-TH module and the SH3 domain); A SUMO module may also be kept, because the protease step was left out; also called the isolated proline-rich linker; source: E. coli BL21(DE3), purified (HisTrap, gel filtration; protease step left out); not shown: His6, N-terminal, kept
Turning to B1, the binding result is “binds”.

For the origin of these results see article PMC10132808, “Stimulation of the catalytic activity of the tyrosine kinase Btk by the adaptor protein Grb2” (eLife, 2023).
